The text below walks through data of CN117736324A (BEIJING DONGFANG BIOTECH CO LTD; BEIJING JINGYI TAIXIANG …, dated 2024).

The target in assay [1] is T1, 人Siglec-15抗原 (Siglec-15蛋白胞外段) (human, UniProt Q6ZMC9 20-263).
T1 construct: extracellular domain
T1 sequence (looked up): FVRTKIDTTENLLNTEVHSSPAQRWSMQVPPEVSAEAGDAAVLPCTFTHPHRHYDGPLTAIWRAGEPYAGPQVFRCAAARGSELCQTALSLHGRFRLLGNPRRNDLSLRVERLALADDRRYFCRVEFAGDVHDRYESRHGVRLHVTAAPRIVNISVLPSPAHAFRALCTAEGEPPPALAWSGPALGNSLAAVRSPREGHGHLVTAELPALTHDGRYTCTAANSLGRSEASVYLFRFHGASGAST
The assay can be described thus: ELISA, Siglec-15 coated, Goat Anti-Mouse IgG-HRP detection. (In an ELISA, binding on a coated surface is turned into a signal by an enzyme label.)

The target in assay [2] is T1, 人Siglec-15抗原 (Siglec-15蛋白胞外段). Put plainly: phage supernatant ELISA, screening of single clones.
Assay [3] has the same target. Put plainly: ELISA, Siglec-15 coated, Goat Anti Human IgG-HRP detection.

B1: MA-IV 鼠源抗Siglec-15单克隆抗体 (mouse IgG1/Ck) (antibody, V domains shown)
VH: EVKLQESGAELVKPGASVKLSCIASGFNIKDTFIHWVKQRPEQGLEWIGRIDPASGYTKYDPKFQGKATITTDTSSNTAYLQLSSLTSEDTAVYYCTRSGSYVSFVYWGQGTLVTVSA
VL: DIVMTQTPASLAVSLGQRATISCKASQSVDYDGDSYMNWYQQKPGQPPKLLIYAASNLESGIPARFSGSGSGTDFTLNIHPVEEEDAATYYCQQSNEDPWTFGGGTKLEIKA
notes: also called 鼠源抗体分子
With B1, the binding result in assay [1] was “binds”.

B2: MA-IV 噬菌体单克隆抗体 (phage-displayed scFv) (scFv, V domains shown)
VH: EVKLQESGAELVKPGASVKLSCIASGFNIKDTFIHWVKQRPEQGLEWIGRIDPASGYTKYDPKFQGKATITTDTSSNTAYLQLSSLTSEDTAVYYCTRSGSYVSFVYWGQGTLVTVSA
VL: DIVMTQTPASLAVSLGQRATISCKASQSVDYDGDSYMNWYQQKPGQPPKLLIYAASNLESGIPARFSGSGSGTDFTLNIHPVEEEDAATYYCQQSNEDPWTFGGGTKLEIK
notes: also called 抗Siglec-15噬菌体单克隆抗体
Consider B2, for which, in assay [2], the binding result is recorded as “binds”.

B3: MA-II 鼠源抗Siglec-15单克隆抗体 (mouse IgG1/Ck) (antibody, V domains shown)
VH: EVKLEQSGGGLVKPGGSLKLSCAASGFTFSSYAMSWVRQSPEKRLEWVAEIISGGSHTYYPDTVTGRFTISRDDAKNTLYLEMSSLRSEDTAMYYCARDGNYGYAMDYWGQGTSVTVSS
VL: DIVITQTPAIMSASPGEKVTMTCRASSSVSSSYLHWYQQKSGASPKLWIYSTSNLASGVPARFSGGGSGTSYSLTISSVEAEDDATYYCQQWSGYPWTFGGGTKLEIKA
notes: also called 鼠源抗体分子
Take B3: the binding result in assay [1] was “binds”.

B4: MA-II 噬菌体单克隆抗体 (phage-displayed scFv) (scFv, V domains shown)
VH: EVKLEQSGGGLVKPGGSLKLSCAASGFTFSSYAMSWVRQSPEKRLEWVAEIISGGSHTYYPDTVTGRFTISRDDAKNTLYLEMSSLRSEDTAMYYCARDGNYGYAMDYWGQGTSVTVSS
VL: DIVITQTPAIMSASPGEKVTMTCRASSSVSSSYLHWYQQKSGASPKLWIYSTSNLASGVPARFSGGGSGTSYSLTISSVEAEDDATYYCQQWSGYPWTFGGGTKLEIK
notes: as for B2
With B4, the binding result in assay [2] was “binds”.

B5: 人源化抗体分子HA-II (human IgG1/Ck) (antibody, V domains shown)
VH: QVQLVQSGAEVKKPGASVKVSCKASGYTFTDYNMFWVRQAPGQRLEWIGYIYPDNGGTGYNQNFKSKATLTVDNSASTAYMELSSLRSEDTAVYYCARSEYDYFDYWGQGTLVTVSS
VL: DIQLTQSPSSLSASVGDRVTITCRASQDISNYLNWYQQKPGKAPKLLIYYTSRLHSGVPSRFSGSGSGTDYTFTISSLQPEDIATYFCQQGNTLPLTFGQGTKVELKR
notes: also called HA-Ⅱ
As to B5, the binding result in assay [3] is given as “binds”.

B6: MA-I 鼠源抗Siglec-15单克隆抗体 (mouse IgG1/Ck) (antibody)
heavy: EVKLEQSGPELVKPGASVKISCKASGYTFTDYNMFWVKQSHGKTLEWIGYIYPDNGGTGYNQNFKSKATLTVDNSSSSAYMELRSLTSEDSAVYYCARSEYDYFDYWGQGTTLTVSSAKTTPPSVYPLAPGSAAQTNSMVTLGCLVKGYFPEPVTVTWNSGSLSSGVHTFPAVLQSDLYTLSSSVTVPSSTWPSETVTCNVAHPASSTKVDKKIVPRDCGCKPCICTVPEVSSVFIFPPKPKDVLTITLTPKVTCVVVDISKDDPEVQFSWFVDDVEVHTAQTQPREEQFNSTFRSVSELPIMHQDWLNGKEFKCRVNSAAFPAPIEKTISKTKGRPKAPQVYTIPPPKEQMAKDKVSLTCMITDFFPEDITVEWQWNGQPAENYKNTQPIMDTDGSYFVYSKLNVQKSNWEAGNTFTCSVLHEGLHNHHTEKSLSHSPG
light: DIVLTQSTSSLSASLGDRVTISCRASQDISNYLNWYQQKPDGTVKLLIYYTSRLHSGVPSRFSGSGSGTDYSLTISNLEQEDIATYFCQQGNTLPLTFGAGTKLELKADAAPTVSIFPPSSEQLTSGGASVVCFLNNFYPKDINVKWKIDGSERQNGVLNSWTDQDSKDSTYSMSSTLTLTKDEYERHNSYTCEATHKTSTSPIVKSFNRNEC
notes: also called MA-1; 鼠源抗体分子
Take B6: in assay [1], the binding result is “binds”.

B7: 嵌合抗体CA-I (antibody, human IgG1, kappa, L234A L235A)
heavy: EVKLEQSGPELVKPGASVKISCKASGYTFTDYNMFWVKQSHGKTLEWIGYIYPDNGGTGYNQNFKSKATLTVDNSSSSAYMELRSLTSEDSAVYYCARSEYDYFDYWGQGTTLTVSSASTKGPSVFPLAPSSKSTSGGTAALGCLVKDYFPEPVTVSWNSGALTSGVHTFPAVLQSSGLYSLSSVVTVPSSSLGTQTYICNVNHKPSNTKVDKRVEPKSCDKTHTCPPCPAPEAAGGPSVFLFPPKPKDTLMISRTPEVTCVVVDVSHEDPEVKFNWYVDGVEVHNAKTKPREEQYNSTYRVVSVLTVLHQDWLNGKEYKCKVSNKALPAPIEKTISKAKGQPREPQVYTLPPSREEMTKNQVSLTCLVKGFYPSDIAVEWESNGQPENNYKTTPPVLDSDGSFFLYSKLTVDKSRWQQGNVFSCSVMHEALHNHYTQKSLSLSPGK
light: DIVLTQSTSSLSASLGDRVTISCRASQDISNYLNWYQQKPDGTVKLLIYYTSRLHSGVPSRFSGSGSGTDYSLTISNLEQEDIATYFCQQGNTLPLTFGAGTKLELKRTVAAPSVFIFPPSDEQLKSGTASVVCLLNNFYPREAKVQWKVDNALQSGNSQESVTEQDSKDSTYSLSSTLTLSKADYEKHKVYACEVTHQGLSSPVTKSFNRGEC
As to B7, in assay [3], the binding result is on record as “binds”.

B8: MA-III 鼠源抗Siglec-15单克隆抗体 (mouse IgG1/Ck) (antibody, V domains shown)
VH: QVKLEESGPELVKPGASVKMSCKASGYIFTSYVMHWVRQKPGQGLEWIGYIDPYNDRTKYNEKFKGKATLTSDKSSSTAYMELSSLTSEDSAVYYCARSGDYGSSFDYWGQGTTLTVSS
VL: DIVMTQSPSSLSASLGERVSLTCRASQEISGYLSWLQQKPDGTIKRLIYAASTLDSGVPKRFSGSRSGSDYSLTISSLESEDFADYYCLQYASYPYTFGGGTKLEIKA
notes: also called 鼠源抗体分子
Regarding B8, in assay [1], the binding result is “binds”.

B9: MA-III 噬菌体单克隆抗体 (phage-displayed scFv) (scFv, V domains shown)
VH: QVKLEESGPELVKPGASVKMSCKASGYIFTSYVMHWVRQKPGQGLEWIGYIDPYNDRTKYNEKFKGKATLTSDKSSSTAYMELSSLTSEDSAVYYCARSGDYGSSFDYWGQGTTLTVSS
VL: DIVMTQSPSSLSASLGERVSLTCRASQEISGYLSWLQQKPDGTIKRLIYAASTLDSGVPKRFSGSRSGSDYSLTISSLESEDFADYYCLQYASYPYTFGGGTKLEIK
notes: as for B2
Take B9: the binding result in assay [2] is reported as “binds”.

B10: MA-I 噬菌体单克隆抗体 (phage-displayed scFv) (scFv, V domains shown)
VH: EVKLEQSGPELVKPGASVKISCKASGYTFTDYNMFWVKQSHGKTLEWIGYIYPDNGGTGYNQNFKSKATLTVDNSSSSAYMELRSLTSEDSAVYYCARSEYDYFDYWGQGTTLTVSS
VL: DIVLTQSTSSLSASLGDRVTISCRASQDISNYLNWYQQKPDGTVKLLIYYTSRLHSGVPSRFSGSGSGTDYSLTISNLEQEDIATYFCQQGNTLPLTFGAGTKLELK
notes: as for B2
As for B10, the binding result in assay [2] is on record as “binds”.
